Experimental data reported in IntAct's records for PubMed 22246185.

B1: Apoptotic protease-activating factor 1 (Homo sapiens), O14727 (parent)
chain: MDAKARNCLLQHREALEKDIKTSYIMDHMISDGFLTISEEEKVRNEPTQQQRAAMLIKMILKKDNDSYVSFYNALLHEGYKDLAALLHDGIPVVSSSSGKDSVSGITSYVRTVLCEGGVPQRPVVFVTRKKLVNAIQQKLSKLKGEPGWVTIHGMAGCGKSVLAAEAVRDHSLLEGCFPGGVHWVSVGKQDKSGLLMKLQNLCTRLDQDESFSQRLPLNIEEAKDRLRILMLRKHPRSLLILDDVWDSWVLKAFDSQCQILLTTRDKSVTDSVMGPKYVVPVESSLGKEKGLEILSLFVNMKKADLPEQAHSIIKECKGSPLVVSLIGALLRDFPNRWEYYLKQLQNKQFKRIRKSSSYDYEALDEAMSISVEMLREDIKDYYTDLSILQKDVKVPTKVLCILWDMETEEVEDILQEFVNKSLLFCDRNGKSFRYYLHDLQVDFLTEKNCSQLQDLHKKIITQFQRYHQPHTLSPDQEDCMYWYNFLAYHMASAKMHKELCALMFSLDWIKAKTELVGPAHLIHEFVEYRHILDEKDCAVSENFQEFLSLNGHLLGRQPFPNIVQLGLCEPETSEVYQQAKLQAKQEVDNGMLYLEWINKKNITNLSRLVVRPHTDAVYHACFSEDGQRIASCGADKTLQVFKAETGEKLLEIKAHEDEVLCCAFSTDDRFIATCSVDKKVKIWNSMTGELVHTYDEHSEQVNCCHFTNSSHHLLLATGSSDCFLKLWDLNQKECRNTMFGHTNSVNHCRFSPDDKLLASCSADGTLKLWDATSANERKSINVKQFFLNLEDPQEDMEVIVKCCSWSADGARIMVAAKNKIFLFDIHTSGLLGEIHTGHHSTIQYCDFSPQNHLAVVALSQYCVELWNTDSRSKVADCRGHLSWVHGVMFSPDGSSFLTSSDDQTIRLWETKKVCKNSAVMLKQEVDVVFQENEVMVLAVDHIRRLQLINGRTGQIDYLTEAQVSCCCLSPHLQYIAFGDENGAIEILELVNNRIFQSRFQHKKTVWHIQFTADEKTLISSSDDAEIQVWNWQLDKCIFLRGHQETVKDFRLLKNSRLLSWSFDGTVKVWNIITGNKEKDFVCHQGTVLSCDISHDATKFSSTSADKTAKIWSFDLLLPLHELRGHNGCVRCSAFSVDSTLLATGDDNGEIRIWNVSNGELLHLCAPLSEEGAATHGGWVTDLCFSPDGKMLISAGGYIKWWNVVTGESSQTFYTNGTNLKKIHVSPDFKTYVTVDNLGILYILQTLE

Variants of: B1
Details: with 1433e_human YWHAE

effect of a mutation on the interaction | Variant
decreasing interaction | S357A

Variants of: B1
Details: with 1433e_human YWHAE
Remark: another data set of the same source

effect of a mutation on the interaction | Variant
decreasing interaction | S268A
